In CN115028713A (JIANGSU DONGKANG BIOMEDICAL TECH CO LTD, dated 2022):

Target: T1, SARS-COV2-N-B1617 (N protein of SARS-CoV-2 variant B1617) (SARS-CoV-2 variant B1617)
T1 construct: also called 冠状病毒SARS-COV2变异株B1617

B1: 单克隆抗体OP2 (anti-SARS-CoV-2 N protein monoclonal antibody OP2) (antibody, V domains shown)
VH: DVQLVESGGGLVQPGGSRKLSCAASGSTFSNFGMHWVRQAPEKGLEWVAYISSASSIIYYADTVKGRFTISRDNPKNTLFLQMTSLRSEDTAMYYCARSAMDYWGQGTSVTVSS
VL: DIVLTQSPASLAVSLGQRATISCKASQSVNYSGDSYMNWFQQKPGQPPKLLIYAASNLESGIPARFSGSGSGTDFTLNIHPVEEEDAATYYCQQSEEQPYTFGGGTKLEIK
notes: also called 抗N蛋白的抗体
B1 gave an EC50 of 0.0166 µg/mL.
